{
  "source": "patent US20180258407",
  "key": {"[1]": {"system": "flag tagged HDAC4 (overexpressed in neonatal rat cardiomyocytes)"}, "[2]": {"system": "HDAC4 expressed in Saccharomyces cerevisiae from a constitutively active promoter (pNOP)"}},
  "data": [
    {"substance": "gfp tagged abhd5 (adenoviral overexpression in neonatal rat ventricular myocytes)", "values": [
      {"measurement": "HDAC4 cleavage, immunoblot", "setting": "[1]", "result": "Overexpressed flag tagged HDAC4 was cleaved whenever gfp tagged abhd5 was coexpressed."}
    ]},
    {"substance": "ABHD5 expressed in Saccharomyces cerevisiae from a Galactose inducible promoter (pGAL)", "values": [
      {"measurement": "cleavage of HDAC4 in Saccharomyces cerevisiae, westernblot analysis", "setting": "[2]", "result": "By overexpression either together or with backbone vector in Saccharomyces cerevisiae we found cleavage of HDAC4, confirmed by westernblot analysis."}
    ]}
  ]
}
